Experiment [1] has as its target SARS-CoV-2突变株B.1.1.529株假病毒 (刺突蛋白) (SARS-CoV-2). In words: cell-based or functional assay.
Experiment [2] concerns the target SARS-CoV-2突变株B.1.617.2株假病毒 (刺突蛋白) (SARS-CoV-2). In words: cell-based or functional assay.

B1: 单克隆抗体9D4 (antibody, V domains shown)
VH: QVHLQQSGPELVKPGASVKISCKSSGYALTDYYINWVKQRPGQGLEWIGWIFPGNDYTYFNEKFKDKATLTLDKSSRTAYMLLSSLTTEDSAVYFCARYGDGNYVYFDYWGQGTSLTVSS
VL: ETVLIQSPALMAASPGEKVTITCSVSSSISSSNLHWYQQKSGNSPKPWIYGTSNLASGVPVRFSGSGSGTSYSLTISSMEAEDAATYYCQQWSSYPLTFGAGTKLELK
On to B1, for which the 假病毒中和活性IC50 came to 188 ng/mL in experiment [1] and 155 ng/mL in experiment [2].

B2: 单克隆抗体8H9 (antibody, V domains shown)
VH: QIQLVQSGPELKKPGETVKISCKASGYTFTTYGMSWVKQTPGKGLKWMGWINTYSGVPTYADDFKGRFAFSLETSASTASLQINNLKNEDTATYFCARYDPTAPDYAMDYWGQGTSVTVSS
VL: NIVMTQSPKSMSMSVGERVTLSCKASENVGTYVSWYQQKPEQSPKLLIYGASNRYTGVPDRFTGSGSATDFTLTISSVQAEDLADYHCGQSYIYPLTFGAGTNLELK
For the molecule B2, the results for the 假病毒中和活性IC50 in experiment [1] and in experiment [2] were 92.9 ng/mL and 56.6 ng/mL, respectively.

These data come from patent CN114790240A (UNIV ZHENGZHOU; UNIV HENAN AGRICULTURAL, dated 2022).
